Assay [1] has as its target T1, LAG3 on cells (recombinant CHO cells expressing Lag3) (human, UniProt P18627 29-525).
T1 construct: The cell ELISA paragraphs say only 'Lag3'; also called CHO-LAG3; Lag3 cells
T1 sequence: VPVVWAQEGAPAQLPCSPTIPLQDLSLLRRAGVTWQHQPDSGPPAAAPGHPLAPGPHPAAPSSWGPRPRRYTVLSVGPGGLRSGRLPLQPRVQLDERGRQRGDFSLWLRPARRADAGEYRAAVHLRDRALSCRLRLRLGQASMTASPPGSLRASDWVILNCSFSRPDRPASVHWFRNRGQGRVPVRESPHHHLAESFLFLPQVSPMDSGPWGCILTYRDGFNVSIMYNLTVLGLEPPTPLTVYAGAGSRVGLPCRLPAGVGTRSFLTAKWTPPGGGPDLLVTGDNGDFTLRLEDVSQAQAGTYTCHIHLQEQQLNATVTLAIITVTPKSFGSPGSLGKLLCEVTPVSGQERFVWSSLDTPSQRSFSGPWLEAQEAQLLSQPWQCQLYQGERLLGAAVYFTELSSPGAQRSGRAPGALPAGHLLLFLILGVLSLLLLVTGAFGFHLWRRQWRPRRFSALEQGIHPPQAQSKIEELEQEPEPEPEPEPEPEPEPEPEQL
Briefly: cell ELISA on recombinant CHO cells expressing Lag3. The protocol:
After washing (1×90 μl in PBST) cells were fixed by addition of 30 μl/well glutaraldehyde to a final concentration of 0.05% (Sigma Cat.No: G5882), 10 min at room temperature. After washing (3×90 μl/well with PBST-buffer) 25 μl/well goat anti-Human Ig κ chain antibody-HRP conjugate (Milipore, AP502P) was added in a 1:1000 dilution and incubated at RT for 1 h. After washing (3×90 μl/well with PBST-buffer) 25 μl/well TMB substrate (Roche, 11835033001) was added and incubated for 6-10 min. Measurement took place on a Tecan Safire 2 instrument at 370/492 nm.
On the technique in general: An ELISA detects its analyte on a solid surface through an enzyme-linked reagent.

For assay [2], the target named is T2, cynomolgus LAG3 on cells (cynomolgus).
T2 construct: whole, on cells; also called cyno-LAG-3; cynoLAG3
The assay can be described thus: flow cytometry on HEK293F cells transfected with cyno-LAG-3, antibody 10 µg/ml. The protocol:
1.5×10⁵ cells/well were seeded into 96-well plates. […] HEK cells were incubated with indicated antibodies for 45 min on ice, washed twice with 200 μl ice-cold PBS buffer containing 2% FBS, before secondary antibody (APC-labelled goat anti-human IgG-kappa, Invitrogen, cat.no. #MH10515) was added (1:50 diluted in FACS-Puffer/well) and further incubated for 30 min on ice. Cells were again washed twice with 200 μl ice-cold PBS/2% FBS buffer before samples were finally resuspended in 150 μl FACS buffer and binding was measured on FACS CANTO-II HTS Module.
(In general: A flow cytometer gives signals particle by particle.)

Assay [3] concerns the target T2, cynomolgus LAG3 on cells. The assay can be described thus: flow cytometry on activated cynomolgus PBMC, 10 µg/ml (only 2nd Ab (rb): 5.26). The method, then: Thus, cynomolgus peripheral blood mononuclear cells (PBMC) were prepared from fresh cynomolgus blood and were then activated by CD3/CD28 pre-treatment (1 μg/ml) for 2-3 days. […] After staining, cells were washed two times with PBS/2% FCS and analyzed on a FACS Fortessa (BD).

Another assay concerns the target T3, biotinylated-Lag3 (UniProt P18627 23-450, limits assumed, biotinylated).
T3 construct: Probably a human LAG3 ECD construct; also called Lag3 (MHCII/ELISA)
T3 sequence (looked up): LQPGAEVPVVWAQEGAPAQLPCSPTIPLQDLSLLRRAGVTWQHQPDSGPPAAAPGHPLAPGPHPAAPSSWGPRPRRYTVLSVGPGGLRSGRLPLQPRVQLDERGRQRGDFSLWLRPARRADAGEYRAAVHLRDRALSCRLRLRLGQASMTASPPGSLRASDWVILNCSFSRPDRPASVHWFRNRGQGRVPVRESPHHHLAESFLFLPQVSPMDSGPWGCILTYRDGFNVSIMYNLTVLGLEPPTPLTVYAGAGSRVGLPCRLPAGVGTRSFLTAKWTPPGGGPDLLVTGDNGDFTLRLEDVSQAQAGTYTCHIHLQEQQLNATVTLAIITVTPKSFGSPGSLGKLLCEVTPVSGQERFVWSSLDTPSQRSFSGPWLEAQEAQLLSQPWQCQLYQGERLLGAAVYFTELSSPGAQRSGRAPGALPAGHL
The assay can be described thus: ELISA, inhibition of biotinylated-Lag3 binding to MHC-II on A375 cells (competitor MHC-II). The protocol: 25 μl/well of A375 cells (10000 cells/well) were seeded into tissue culture treated 384-well plates (Corning, 3701) and incubated at 37° C. overnight. […] After washing (1×90 μl in PBST) cells were fixed by addition of 30 μl/well glutaraldehyde to a final concentration of 0.05% (Sigma Cat.No: G5882), 10 min at room temperature. After washing (3×90 μl/well with PBST-buffer) 25 μl/well Poly-HRP40-Streptavidin (Fitzgerald, 65R-S104PHRPx) was added in a 1:2000 or 1:8000 dilution and incubated at RT for 1 h. After washing (3×90 μl/well with PBST-buffer) 25 μl/well TMB substrate (Roche, #11835033001) was added and incubated for 2 to 10 min. Measurement took place on a Tecan Safire 2 instrument at 370/492 nm.

The target of assay [4] is T4, human Fc tagged human Lag3 extra cellular domain (human, UniProt P18627 29-450, biotinylated in the epitope binning, the SA CAP SPR and the FACS competition assay).
T4 construct: In-house fusion; also called huLag3-Fc; biotinylated, huFc-tagged huLag3; not shown: human Fc tag
T4 sequence: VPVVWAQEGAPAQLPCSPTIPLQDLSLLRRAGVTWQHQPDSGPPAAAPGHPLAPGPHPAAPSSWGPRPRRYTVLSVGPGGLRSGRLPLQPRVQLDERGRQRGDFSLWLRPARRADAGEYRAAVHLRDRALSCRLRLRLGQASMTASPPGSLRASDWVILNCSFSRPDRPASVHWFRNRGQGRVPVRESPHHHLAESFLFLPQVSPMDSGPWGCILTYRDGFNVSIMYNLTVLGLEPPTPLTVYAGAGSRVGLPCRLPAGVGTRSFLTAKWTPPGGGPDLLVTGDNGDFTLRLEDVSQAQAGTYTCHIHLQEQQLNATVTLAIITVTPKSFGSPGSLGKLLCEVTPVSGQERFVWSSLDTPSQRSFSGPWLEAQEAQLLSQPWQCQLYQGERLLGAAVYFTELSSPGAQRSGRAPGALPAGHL
Briefly: FACS, inhibition of biotinylated Lag3:Fc binding to MHC-II on A375 cells (competitor MHC-II); antibody 10 µg/ml. The method, then: This analysis was studied in a FACS competition experiment: A375 cells (ATCC, #CRL-1619) were cultured for 2-3 passages in EM Eagle's medium supplemented with EBSS (PAN, cat.no. #P04-00509), 10% FBS, 2 mM L-Glutamin, 1×NEAA and 1× Sodium Pyruvate. All antibodies, were diluted in FACS buffer to a final concentration of 20 μg/ml in 25 μl (in 96well U-bottom plates). […] A375 cells were washed with PBS and adjusted to 3×10⁶ cells/ml in PBS. 100 μl were seeded per well in a 96well V-bottom plate. Plates were centrifuged and supernatant was removed. […] After this, cells were washed with 200 μl FACS buffer. […] After staining, cells were again washed and then transferred in 150 μl FACS buffer (PBS/2% FBS) to a U-bottom plate and analyzed on a FACS Canto-II using an HTS module.
All antibodies were used at 10 μg/ml final concentration.

Assay [5] deals with T5, biotinylated cynoPD1-ECD-Biotin (cynomolgus, UniProt B0LAJ3 25-170, biotinylated; the site and any Avi or His tag are not stated in the passages shown).
T5 construct: also called cyPD1
T5 sequence (B0LAJ3 entry or part of it limits assumed): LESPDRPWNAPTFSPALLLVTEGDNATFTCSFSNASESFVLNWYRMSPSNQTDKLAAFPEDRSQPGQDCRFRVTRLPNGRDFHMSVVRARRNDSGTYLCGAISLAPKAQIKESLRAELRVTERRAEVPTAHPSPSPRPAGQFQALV
Briefly: ELISA on coated cynoPD1-ECD-Biotin. The method, then:
After washing (3×90 μl/well with PBST-buffer) 25 μl/well goat-anti-human H+L-POD (JIR, JIR109-036-088) was added in 1:1000 dilution and incubated at RT for 1 h on shaker. After washing (3×90 μl/well with PBST-buffer) 25 μl/well TMB substrate (Roche, 11835033001) was added and incubated until OD 2-3. Measurement took place at 370/492 nm.

For assay [6], the target named is T6, biotinylated PD1-ECD-AviHis (human, UniProt Q15116 25-170, biotinylated).
T6 construct: also called huPD1; hu PD1; not shown: Avi-His tag
T6 sequence (Q15116 25-170): as the sequence (B0LAJ3 entry or part of it limits assumed) above, with E2D, A10P, L19V, A35T, R75Q, A144T counted along it
The assay can be described thus: ELISA on coated biotinylated PD1-ECD-AviHis. The method, then:
After washing (3×90 μl/well with PBST-buffer) 25 μl/well goat-anti-human H+L-POD (JIR, JIR109-036-088)/Sheep-anti-mouse-POD (GE Healthcare; NA9310) was added in 1:2000/1:1000 dilution and incubated at RT for 1 h on shaker. After washing (3×90 μl/well with PBST-buffer) 25 μl/well TMB substrate (Roche Catalogue No. 11835033001) was added and incubated until OD 2-3. Measurement took place at 370/492 nm.

In assay [7] the target is T6, biotinylated PD1-ECD-AviHis. Briefly: PD-L1 replacing ELISA on coated PD1-ECD-AviHis; competitor PD-L1 Fc chimera. The protocol:
After washing (3×90 μl/well with PBST-buffer) 25 μl/well goat-anti-human H+L-POD (JIR, 109-036-088) was added in 1:1000 dilution and incubated at RT for 1 h on shaker. After washing (3×90 μl/well with PBST-buffer) 25 μl/well TMB substrate (Roche, 11835033001) was added and incubated until OD 2-3. Measurement took place at 370/492 nm.

For assay [8] the target is unchanged. The assay can be described thus: PD-L2 replacing ELISA on coated PD1-ECD-AviHis; competitor PD-L2 Fc chimera. The protocol: After washing (3×90 μl/well with PBST-buffer) 25 μl/well goat-anti-human H+L-POD (JIR, 109-036-088) was added in 1:2000 dilution and incubated at RT for 1 h on shaker. After washing (3×90 μl/well with PBST-buffer) 25 μl/well TMB (tetramethylbenzidine) substrate (Roche, #11835033001) was added and incubated until OD 2-3. Measurement took place at 370/492 nm.

The record followed here is patent US20220387586A1 (Hoffmann-La Roche, published 2022).

B1: aLAG3(0403) (antibody, V domains shown)
VH: EVQLLESGGGLVQPGGSLRLSCAASGFTFDDYTMHWVRQAPGKGLEWVSLVSWDGGGTYYTNSVKGRFTISRDNSKNTLYLQMNSLRAEDTAVYFCAKAITDTSLYGYDYWGQGILVTVSS
VL: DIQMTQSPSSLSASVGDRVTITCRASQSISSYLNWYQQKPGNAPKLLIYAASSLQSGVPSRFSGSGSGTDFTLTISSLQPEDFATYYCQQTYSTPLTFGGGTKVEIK
The term IC50 denotes the concentration needed to halve the response being measured. By % Inhibition is commonly meant the share of the control response that was lost under treatment. The low end stands for a weak effect, the high end for a strong effect. Take B1: in assay [1], the “CHO-cell ELISA inflexion point” value stood at 30.9 ng/mL. In the assay with cynomolgus LAG3 on cells [2], the “% pos.” value worked out at 82% and the GeoMean came out at 7460. Also, the “% positive cyno cells (PBLs) after CD3/CD28 activation” value with cynomolgus LAG3 on cells [3] was 44.2%. The IC50 with biotinylated-Lag3 was found to be 0.9 nM. Moreover, the “% Inhibition” value in assay [4] was 34.9%.

B2: PD1-0102 (antibody, V domains shown)
VH: DVQLQESGPDLVKPSQSLSLTCTVTGYSITSGYSWHWIRQFPGNKLEWMGFIHSSGDTNYNPSLKSRISFTRDTSKNQFFLQLSSLTDEDTATYYCATYRNWYFDVWGAGTTVTVSS
VL: DIVMTQSPSSLTVTAGEKVTMRCKSSQSLLNSGTQKNYLTWYQQKPGQPPKLLIYWASTRESGVPNRFTGSGSGTDFTLTISSVQAEDLSVYYCQSDYTFPLTFGGGTKLELK
Broadly, the EC50 is the concentration needed to bring the measured effect to its halfway point. Consider B2, for which the results for the EC50 in assay [5] and in [6] were 0.0527 µg/mL and 0.0342 µg/mL, respectively. In addition, the values for the IC50 in assay [7] and in assay [8] were > 35.5 µg/mL and 0.14 µg/mL, respectively.

B3: PD1-0050 (antibody, V domains shown)
VH: DVQLQESGPGLVKPSQSLSLTCTVTGYSITSDYAWNWIRQFPGNKLEWMGYITYTGRTSYNPSLKSRISITRDTSKNQFFLQLNSVTTEDTATYYCAREMDYYGSTLDYWGQGTTLTVSS
VL: KIVLTQSPASLAVSLRQRATISCRASESVDRYGNSFIHWYQQKPGQPPKVLIYRASNLESGFPARFSGSGSRTDFTLTIDPVEADDAATYYCQQNNEDPYTFGSGTKLEIK
As for B3, the half-maximal effective concentration (EC50) in [5] amounted to 0.0098 µg/mL; in [6] it was 0.0179 µg/mL. The IC50 in assay [7] was 0.128 µg/mL; in [8], 0.034 µg/mL.

B4: PD1-0098 (antibody, V domains shown)
VH: DVQLQESGPGLVKPSQSLSLTCTVTGYSITSDYAWNWIRQFPGDKLEWLGYITYSGFTNYNPSLKSRISISRDTSKNQFFLQLNSVATEDTATYYCARWHGSAPWYFDYWGRGTTLTVSS
VL: DVLMTQTPLSLPVSLGDQASISCRSSQNIVHSDGNTYLEWYLQKPGQSPNLLIYKVSRRFSGVPDRFSGSGSGTDFTLKISRVEAEDLGVYYCFQGSHFPLTFGAGTKLELK
notes: Mouse hybridoma antibody
For B4, the EC50 in assay [5] turned out to be 0.0546 µg/mL; in assay [6] it was 0.0508 µg/mL. The IC50 in assay [7] worked out at 0.174 µg/mL; in assay [8] it was 0.045 µg/mL.

B5: PD1-0103 (antibody, V domains shown)
VH: EVILVESGGGLVKPGGSLKLSCAASGFSFSSYTMSWVRQTPEKRLDWVATISGGGRDIYYPDSVKGRFTISRDNAKNTLYLEMSSLMSEDTALYYCVLLTGRVYFALDSWGQGTSVTVSS
VL: KIVLTQSPASLPVSLGQRATISCRASESVDTSDNSFIHWYQQRPGQSPKLLIYRSSTLESGVPARFSGSGSRTDFTLTIDPVEADDVATYYCQQNYDVPWTFGGGTKLEIK
notes: Mouse hybridoma antibody; also called murine anti-PD1 antibody PD1-0103
On to B5, for which the values for the 50% effective concentration (EC50) in assay [5] and in assay [6] were 0.0369 µg/mL and 0.0337 µg/mL, respectively. The 50% inhibitory concentration (IC50) in assay [7] is 0.182 µg/mL; in assay [8], 0.051 µg/mL.
